This is an account of results in paper PMC13022455, “Oligomerization-dependent and synergistic regulation of Cdc42 GTPase cycling by a GEF and a GAP” (EMBO Reports, 2026).

Data set [1] deals with T1, Cdc24 (S. cerevisiae) (UniProt P11433).
T1 sequence: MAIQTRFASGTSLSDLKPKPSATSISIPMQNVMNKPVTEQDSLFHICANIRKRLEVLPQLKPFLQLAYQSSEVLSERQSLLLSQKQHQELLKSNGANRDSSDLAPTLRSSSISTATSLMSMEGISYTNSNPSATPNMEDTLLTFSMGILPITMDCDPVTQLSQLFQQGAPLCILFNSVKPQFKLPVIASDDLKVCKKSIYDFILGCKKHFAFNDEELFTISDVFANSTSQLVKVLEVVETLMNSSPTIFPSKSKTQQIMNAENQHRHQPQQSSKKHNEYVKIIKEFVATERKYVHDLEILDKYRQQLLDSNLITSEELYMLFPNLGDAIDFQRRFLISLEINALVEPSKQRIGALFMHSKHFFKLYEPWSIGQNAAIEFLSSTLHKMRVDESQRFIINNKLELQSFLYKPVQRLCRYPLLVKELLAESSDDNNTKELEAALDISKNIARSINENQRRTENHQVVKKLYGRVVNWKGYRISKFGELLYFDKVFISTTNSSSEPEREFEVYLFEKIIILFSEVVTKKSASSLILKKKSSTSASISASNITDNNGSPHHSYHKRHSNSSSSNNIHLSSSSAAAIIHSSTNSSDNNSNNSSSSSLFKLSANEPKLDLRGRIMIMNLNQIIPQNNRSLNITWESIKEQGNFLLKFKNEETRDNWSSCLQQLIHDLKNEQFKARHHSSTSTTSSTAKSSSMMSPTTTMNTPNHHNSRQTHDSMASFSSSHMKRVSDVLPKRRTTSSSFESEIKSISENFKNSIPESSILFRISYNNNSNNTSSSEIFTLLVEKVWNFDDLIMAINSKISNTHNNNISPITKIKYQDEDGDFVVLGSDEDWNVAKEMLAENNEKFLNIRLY

Data set [2] deals with the molecule itself. Nature of the data set: SEC-MALS; single purified proteins; Superdex 200 Increase 10/300 GL, SEC buffer (50 mM Tris-HCl pH 7.5, 100 mM NaCl, 10 mM MgCl2, 1 mM 2-mercaptoethanol) with 0.02% sodium azide, 0.5 mL/min; samples 5.7–7.1 µM; fractions analysed by SDS-PAGE and anti-His western blot. (In general: SEC sorts molecules by how far they enter the pores of the column.)

Data set [3] addresses Cdc24-DH3 (incl. mutation L339A, E340A) (S. cerevisiae) (UniProt P11433).

Where a chain is given by its changes, count along the chain named. Names may count otherwise.

B1: His-Rga2 (Rga2 tagged with an N-terminal 6His purification tag) (enzyme, S. cerevisiae, UniProt Q06407 1-1009, looked up)
chain: MSADPINDQSSLCVRCNKSIASSQVYELESKKWHDQCFTCYKCDKKLNADSDFLVLDIGTLICYDCSDKCTNCGDKIDDTAIILPSSNEAYCSNCFRCCRCSNRIKNLKYAKTKRGLCCMDCHEKLLRKKQLLLENQTKNSSKEDFPIKLPERSVKRPLSPTRINGKSDVSTNNTAISKNLVSSNEDQQLTPQVLVSQERDESSLNDNNDNDNSKDREETSSHARTVSIDDILNSTLEHDSNSIEEQSLVDNEDYINKMGEDVTYRLLKPQRANRDSIVVKDPRIPNSNSNANRFFSIYDKEETDKDDTDNKENEIIVNTPRNSTDKITSPLNSPMAVQMNEEVEPPHGLALTLSEATKENNKSSQGIQTSTSKSMNHVSPITRTDTVEMKTSTSSSTLRLSDNGSFSRPQTADNLLPHKKVAPSPNKKLSRSFSLKSKNFVHNLKSKTSEMLDPKHPHHSTSIQESDTHSGWGVSSTHTNIRKSKAKKNPVSRGQSDSTIYNTLPQHGNFTVPEFNHKKAQSSLGSISKKQNSNDTATNRRINGSFTSSSSGHHIAMFRTPPLESGPLFKRPSLSSESAHHRSSSLQTSRSTNALLEDDSTKVDATDESATSLEKDFYFTELTLRKLKLDVRELEGTKKKLLQDVENLRLAKERLLNDVDNLTREKDKQSASSRESLEQKENIATSITVKSPSSNSDRKGSISNASPKPRFWKIFSSAKDHQVGDLESQQRSPNSSSGGTTNIAQKEISSPKLIRVHDELPSPGKVPLSPSPKRLDYTPDGSHLYGSSLQARCAYEKSTVPIIIRCCIDRIEKDDIGLNMEGLYRKSGSQTLVEEIENEFAQNNSLHSDTLSPKLNALLNQDIHAVASVLKRYLRKLPDPVLSFSIYDALIDLVRNNQLIERLPLNNDKFLDSPQKVTIYEMVLKSLLEIFKILPVEHQEVLKVLAAHIGKVRRCSERNLMNLHNLSLVFAPSLIHDFDGEKDIVDMKERNYIVEFILGNYRDIFKQA
notes: plasmid pRV014; Found only as higher-order oligomers in SEC-MALS; also called Rga2(I); pRV014; source: E. coli BL21 DE3 pLysS, purified (HisTrap Excel, SEC Sephacryl S-300); not shown: His6, N-terminal, kept
For B1, in data set [1], the interaction (synergy) rate k3,X1,X2 of Cdc42 GTPase cycling in Cdc42–Cdc24–Rga2 ((II)) mixtures (GTPase-Glo assay) is 51.7 µM^−4 h^−1 and the interaction (synergy) rate k3,X1,X2 of Cdc42 GTPase cycling in Cdc42–Cdc24–Rga2(I) mixtures (GTPase-Glo assay) worked out at 87 µM^−4 h^−1. The binding result in data set [2] was “binds”.

B2: Cdc24-DH3 (incl. mutation L339A, E340A) (enzyme)
chain: T1 sequence with L339A, E340A
B2 gave a rate k3,Cdc24-DH3 of Cdc42 GTPase cycling (GTPase-Glo assay) in data set [3] of 0.702 µM^−2 h^−1.

B3: GAP domain (aa 797–981 from Rga2) (domain or fragment, S. cerevisiae, UniProt Q06407 797-981, looked up)
chain: EKSTVPIIIRCCIDRIEKDDIGLNMEGLYRKSGSQTLVEEIENEFAQNNSLHSDTLSPKLNALLNQDIHAVASVLKRYLRKLPDPVLSFSIYDALIDLVRNNQLIERLPLNNDKFLDSPQKVTIYEMVLKSLLEIFKILPVEHQEVLKVLAAHIGKVRRCSERNLMNLHNLSLVFAPSLIHDFDG
notes: Rga2 GAP domain, S. cerevisiae, aa 797–981 (Smith et al, 2002); plasmid pRV138; also called Rga2's GAP domain; pRV138; source: E. coli BL21 DE3 pLysS, purified (HisTrap Excel, SEC Sephacryl S-300)
For the molecule B3, in data set [2], the binding result is given as “binds”.
